Measured values as given in the nanobody polyreactivity screen of Harvey et al. (2022).

Assay: yeast display, Sf9 membrane polyspecificity reagent, FACS + sequencing; frameworks hold sequencing errors
How it was run: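 After 36–48 hours of galactose induction, yeast (Saccharomyces cerevisiae BJ5465) displaying a synthetic nanobody library were stained at 4 °C for 1 hour with 10% biotinylated, detergent-solubilized Sf9 membrane reagent. Streptavidin microbeads enriched the stained cells before FACS sorting into low and high (top ~1%) gates on anti-HA and streptavidin fluorescence. Each clone's polyreactivity label reflects its gate of origin.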

Row | Sequence | polyreactivity (PSR sort gate)
1 | QVQLVESGGGLVQAGGSLRLSCAASGSIFFDYAMGWDRQAPGKERQLVAAISWTGGSTYYADSVKGRFTISRDNAKNTVYLQMNSLKPEDTAVYYCNARYYSYSSPYDYWGQGTQVTVSS | high polyreactivity
2 | QVQLVESGGGLVQAGGSLRLSCAASGSIFFGNAMGWYRQAPGKERELVAAISSRGTSTYYADSVKGRFTISRDNAKNTVYLQMNSLKPEDTAVYYCNKRVRTFRGGPLAGYDYWGQGTQVTVSS | high polyreactivity
3 | QVQLVESGGGLVQAGGSLRLSCAASGSIFFGNAMGWYRQAPGKERELVAAISTTGGSTYYADSVKGRFTISRDNAKNTVYLQMISLKPEDTAVYYCNADRATWWEQWWYDYWGQGTQVTVSS | low polyreactivity
4 | QVQLVESGGGLVQAGGSLRLSCAASGSIFFHNAMGWYRQAPGKERELVAAITSSGGRTYYADSVKGRFTISRDNAKNTVYLQMNSLKPEDTAVYYCDASPYGFRRNYYWGQGTQVTVSS | high polyreactivity
5 | QVQLVESGGGLVQAGGSLRLSCAASGSIFFPNAMGWYRQAPGKERELVAAITSTSTNYADSVKGRCTISRDNAKNTVYLQMNSLKPEDTAVYYCAADGEFRRAWYEGVYWGQGTQVTVSS | low polyreactivity
6 | QVQLVESGGGLVQAGGSLRLSCAASGSIFFPYAMGWYRQAPGKEREFVAAITGSGTSTYYADSVKGRFTISRDNAKNTVYLQMNSLKPEDTAVYYCNAKRDRYFYTVKYDYWGQGTQVTVSS | low polyreactivity
7 | QVQLVESGGGLVQAGGSLRLSCAASGSIFFRYAMGWYRQAPGKERELVARISWGGGRTYYADSVKGRFTISRDNAKNTVYLQMNSLKPEDTAVYYCNRAYWVNPGGFDYWGQGTQVTVSS | high polyreactivity
8 | QVQLVESGGGLVQAGGSLRLSCAASGSIFFSYAMGWYRPAPGKERELVAAISSGGSTYYADSVKGRFTISRDNAKNTVYLPMNSLKPEDTAVFYCAARGYRLVPVDFYYWGQGTQVTVSS | low polyreactivity
9 | QVQLVESGGGLVQAGGSLRLSCAASGSIFFSYAMGWYRQAPGKERELVAAITSSVDSTYYADSVKGRFTISRDNAKNTVYLQMNSLKPEDTAVYYCAARYRSGYYRYDYWGQGTQVTVSS | low polyreactivity
10 | QVQLVESGGGLVQAGGSLRLSCAASGSIFFSYAMGWYRQAPGKERELVATITTSGGRTRYADSVKGRFTISRDNAKNTVYLQMNSLKPEDTAVYYCAVRGHFFTYGYWGQGTQVTVSS | high polyreactivity
11 | QVQLVESGGGLVQAGGSLRLSCAASGSIFFTYTMGWYRQAPGKERELVAAISASGGSTYYADSVKGRFTISRDNAKNTVYLQMNSLKPEDTAVYYCNARRRTSFIMYYWGQGTQVTVSS | high polyreactivity
12 | QVQLVESGGGLVQAGGSLRLSCAASGSIFFVYDMGWYRQAPGKERELVAGIRWSGGRTSYADSVKGRFTISRDNAKNTVYLQMNRLKPEDAAVYYCAADPRSYFTSEYWGQGTQVTVSS | high polyreactivity
13 | QVQLVESGGGLVQAGGSLRLSCAASGSIFFYNAMGWYRQAPGKERELVAAITTRGGSTYYADSVKGRFTISRDNAKNTVYLQMNSLKPEDTAVYYCARSSRGKLDYWGQGTQVTVSS | low polyreactivity
14 | QVQLVESGGGLVQAGGSLRLSCAASGSIFFYNAMGWYRQAPGKERELVAAITTRGGSTYYADSVKGRFTISRDNAMNTVYLQKNSLKPEDTAVYYCTADYYWTSLAMDSWGQGTQVTVSS | low polyreactivity
15 | QVQLVESGGGLVQAGGSLRLSCAASGSIFFYNTMGWYRQAPGKERELVARISRSGGSTYYADSVKGRFTISRDNAKNTVYLQMNSLKPEDTAVYYCAARSAPWRYRYYKPYYYWGQGTQVTVSS | high polyreactivity
16 | QVQLVESGGGLVQAGGSLRLSCAASGSIFFYYAMGWYRQAPGKEREFVAHITSSDASTHYADSVKGRFTISRDNAKNTVYLQMNSLKPEDTAVYYCAADRYPGHRERDYWGQGTQVTVSS | low polyreactivity
17 | QVQLVESGGGLVQAGGSLRLSCAASGSIFFYYAMGWYRQAPGKERELVAAITLSDGRTYYADSVKGRFTISRDNAKNTVYLQMNSLKPEDTAVYYCNADTGWYPTGARWHHYDYWGQGTQVTVSS | high polyreactivity
18 | QVQLVESGGGLVQAGGSLRLSCAASGSIFGANAMGWYRQAPGKERELVAAISSNGDDTYADSVMGRFTISRDNAKNTVYLQMNSLKPEDTAVYYCAARAERVREYNYWGQGTQVTVSS | low polyreactivity
19 | QVQLVESGGGLVQAGGSLRLSCAASGSIFGANVMGWYRQAPGKERELVAGITGSGGSTYADSVKGRFTISRDNAKNTVYFQMNSLKPEDTAVYYCNADTQFALVADFDYWGQGTQVTVSS | low polyreactivity
20 | QVQLVESGGGLVQAGGSLRLSCAASGSIFGAYAMGWYRQAPGKERELVAAIDKSTGSTYYADSVKGRFTISRDNAKNTVYLQMNSLKPEDTAVYYCAKDWGVYQYSYDYWGQGTQVTVSS | low polyreactivity
21 | QVQLVESGGGLVQAGGSLRLSCAASGSIFGAYAMGWYRQAPGKERELVAAISGSGTSTYYADSVKGRFTISRDNAKNTVYLQMNSLKPDDTAVYYCATAKLTWRSQGLDYWGQGTQVTVSS | low polyreactivity
22 | QVQLVESGGGLVQAGGSLRLSCAASGSIFGAYAMGWYRQAPGKERELVAAISSSVDRTYYADSVKGRFTNSRDNAKNTVYLQMNCLKPEDTAVYYCAARWGTRDRTKYYYWGQGTQVTVSS | high polyreactivity

Row | Sequence | polyreactivity (PSR sort gate)
23 | QVQLVESGGGLVQAGGSLRLSCAASGSIFGAYAMGWYRQAPGKERELVAVIRWGGGSTYADSVKGRFTISRDNAKNTVYLQMNRLKPEDTAVYYCNRDKSWADLYSHAYDYWGQGTQVTVSS | low polyreactivity
24 | QVQLVESGGGLVQAGGSLRLSCAASGSIFGAYMGWYRQAPGTEREFVAAINRSGSSTYYADSVKGRFTISRDNAKNTVYLQMNSLKPEDTAVYYCAAKYPGGETYPFDYWGQGTQVTVSS | low polyreactivity
25 | QVQLVESGGGLVQAGGSLRLSCAASGSIFGAYTMGGYRQAPGKERELVAAISIGGSTNYADSVKGRFTISRDYAKNTVYLQMNSLKPEDSAVYYCNAEPDLEDWWWAIGLYDYWGQGTQVTVSS | high polyreactivity
26 | QVQLVESGGGLVQAGGSLRLSCAASGSIFGAYTMGWYRPAPGKERELVAALSIGGSTNYADSVKGRFTISRDNAKNTVYLQMNSLKPEDTAVYYCNAEPHREDWWWAIGLYDYWGQGTQVTVSS | high polyreactivity
27 | QVQLVESGGGLVQAGGSLRLSCAASGSIFGAYTMGWYRQAPGKERELVAAISRSGSTYYADSVKGRFTISRDNAKNTVYLQMKSLKPEDTAVYYCYGVGYSGLRRYYKYDYWGQGTQVTVSS | high polyreactivity
28 | QVQLVESGGGLVQAGGSLRLSCAASGSIFGAYVMGWYRQAPGKERELVAAISRSGASTYYADSVKGRFTISRDNAKNTVYLQMNSLKPEDTAVYYCAARDRQRVSYCYWGQGTQVTVSS | high polyreactivity
29 | QVQLVESGGGLVQAGGSLRLSCAASGSIFGAYVMGWYRQAPGKERELVAAITRRGGSTYYADSVKGRFTISRDNAKNTVYLQMNSLKPEDTAVYYCAARRGAGDGYWGQGTQVTVSS | high polyreactivity
30 | QVQLVESGGGLVQAGGSLRLSCAASGSIFGDNAMAWYRQAPGKERELVARISSGGNTYYADSVKGRFTISRDNAKNTVYLQMNSLKPEDTAVYYCAAAIKVRYKKFPYYYWGQGTQVTVSS | high polyreactivity
31 | QVQLVESGGGLVQAGGSLRLSCAASGSIFGDNAMGWYRQAPGKERELVAAISIVGSTSYADSVKGRFTISRDNAKNTVYLQMNSLKPEDTAVYYCAADTFYSYYDMDYWGQGTQVTVSS | low polyreactivity
32 | QVQLVESGGGLVQAGGSLRLSCAASGSIFGDNAMGWYRQAPGKERELVAAITSSGGSTYYADSVKGRFTISRDNAKNTVYLQMNSLKPEDTAVYYCNADFGYGWYLRYDYWGQGTQVTVSS | high polyreactivity
33 | QVQLVESGGGLVQAGGSLRLSCAASGSIFGDNAMGWYRQAPGKERELVAAITTGASRTYYADSVKGRFTISRDNAKNTVYLQMNSLKPEDTAVYYCNASDPSWREYDYWGQGTQVIVSS | low polyreactivity
34 | QVQLVESGGGLVQAGGSLRLSCAASGSIFGDYAMGWYRQAPGKERELVAAITSSGGITYYADSVKGRFTISLDNAKNTVYLQMKSLNPEDTAVYYCAAYGYGSNYRYTGYYYWGQGTQVTVSS | low polyreactivity
35 | QVQLVESGGGLVQAGGSLRLSCAASGSIFGDYVMGWYRQAPGKERELVAAITFGGGRTYYADSVKGRFTISRDNAKNTVYLQMNSLKPEDTAVYYCAVSRKGLGSVEYWGQGTQVTVSS | low polyreactivity
36 | QVQLVESGGGLVQAGGSLRLSCAASGSIFGENARGWYRQAPGKERELVAAITSGGSTYYADSVKGRFTISRDNAKNTVYLQMNSLKPVDTAVYYCAASGRVGPGYWYDSWGQGTQVTVSS | low polyreactivity
37 | QVQLVESGGGLVQAGGSLRLSCAASGSIFGEYAMGWYRQAPGKERELVADITTGGNTNYADSVKGRFTISRDYAKNTVYLQMNSLKPEDTAVYYCADEANYYVIFHGSWYTDDYWGQGTQVTVSS | low polyreactivity
38 | QVQLVESGGGLVQAGGSLRLSCAASGSIFGFNAMGWYRQAPGKERELVAAINNGGSTNYADSVKGRFTISRDNAKNTVYLQMNSLKPEDTAVYYCAAVGGWRWSNQDYRYPYYYWGQGTQVTVSS | high polyreactivity
39 | QVQLVESGGGLVQAGGSLRLSCAASGSIFGFNTMGWYRQAPGKERELVATINWSGGSTYYADSVKGRFTISRDNAKNTVYLQMNSLKPEDTAVYYCNAGPFSGRLFTTYASRGRYDYWGQGTQVTVSS | low polyreactivity
40 | QVQLVESGGGLVQAGGSLRLSCAASGSIFGFYAMGWYRQAPGKERELVAAISSDGGSTYYADSVKGRFTISRDNAKNTVYLQMNSLKPEDTAVYYCAAAHGSIYDSTYYEYYYWGQGTQVTVSS | low polyreactivity
41 | QVQLVESGGGLVQAGGSLRLSCAASGSIFGFYAMGWYRQAPGKERELVASITISGGSTYYADSVKGRFTISRDNAKNTVYLQMNSLKPEDTAVYYCAARRYWDYNYWGQGTQVTVSS | low polyreactivity
42 | QVQLVESGGGLVQAGGSLRLSCAASGSIFGGNAMGCYRQAPGKERELVAAITDGGNTNYADSVKGRFTISRDNAKNTVYLQMNSLKPEDTAVYYCAARMPGTYGGRYGYDYWGQGTQVTVSS | low polyreactivity
43 | QVQLVESGGGLVQAGGSLRLSCAASGSIFGGNAMGWYRQAPGKERELVAAISGSGGSTYYADSVKGRFTISRDNAKNTVYLQMNSLKPEDTAVYYCAAGIYRGRNYYYWGQGTQVTVSS | high polyreactivity
